Reference: patent US20210163624A1 (Memorial Sloan Kettering, published 2021)

Key:
[1] = target: WT1A1-B peptide (…)/HLA-A0201 complex on T2 cells (human); assay: flow cytometry, T2 cells pulsed with WT1-A1-B peptide
[2] = target: T1, RHAMM-R3 peptide/HLA-A0201 complex on T2 cells (human); assay: flow cytometry, T2 cells pulsed overnight with graded RHAMM-R3 peptide
T1 construct: also called RHAMM-3; R3/HLAA0201

[3] = target: T2, HLA-A0201 molecule on T2 cells alone (no peptide pulsed) (human); assay: flow cytometry, T2 cells without peptide (0 µg/ml point)
T2 construct: No exogenous peptide; It is also the MHC partner in the T2 stabilization assay; also called T2 alone; HLA-A2 molecule

[4] = target: T3, EW peptide/HLA-A0201 complex on T2 cells (human); assay: flow cytometry on T2 cells pulsed with EW peptide
T3 construct: also called Ewing sarcoma-derived peptide

[5] = target: T4, WT1-A1 heteroclitic peptide (tyrosine at position 1 of RMF)/HLA-A0201 complex on T2 cells (human); assay: flow cytometry, T2 cells pulsed with WT1-A1 peptide
[6] = target: T5, RMF peptide (…)/HLA-A0201 complex on the cell surface (human); assay: radioimmunoassay with 125-I-labeled WT1 ab1 on JMN cells, Scatchard analysis (bivalent IgG1, avidity)
T5 construct: Either on T2 cells pulsed with the synthetic peptide, or naturally processed and presented on WT1+ HLA-A0201+ tumour cells; The assay field of each row says which; also called WT1p/A2 complex; WT1/A2

[7] = target: T2, HLA-A0201 molecule on T2 cells alone …; assay: flow cytometry, scFv phage on T2 cells without peptide
[8] = target: T5, RMF peptide (…)/HLA-A0201 complex on …; assay: flow cytometry, scFv phage on T2 cells pulsed with WT1A peptide; scFv phage on T2 cells pulsed with WT1-A (RMF) peptide, 50 µg/ml
[9] = target: T1, RHAMM-R3 peptide/HLA-A0201 complex on …; assay: flow cytometry, scFv phage on T2 cells pulsed with RHAMM-3 peptide
[10] = target: T2, HLA-A0201 molecule on T2 cells alone …; assay: T2 stabilization assay, HLA-A2 detected with mAb BB7
[11] = target: T1, RHAMM-R3 peptide/HLA-A0201 complex on …; assay: flow cytometry, live T2 cells pulsed with graded RHAMM-R3 peptide
[12] = target: T6, Biotinylated single chain WT1 peptide/HLA-A0201 complex (recombinant, refolded) (human, biotinylated (site not stated)); assay: kinetic binding analysis, sensorgram in nm against time (sec) with fit; column ka [1/Ms]
T6 construct: also called WT1/A2; HLA-A0201/WT1 peptide complex

[13] = target: T2, HLA-A0201 molecule on T2 cells alone …; assay: flow cytometry, live T2 cells without peptide (0 µg/ml group)
[14] = target: T6, Biotinylated single chain WT1 …; assay: kinetic binding analysis, sensorgram in nm against time (sec) with fit; column kd [1/s]; Error in kd 1.12E-4
[15] = target: T6, Biotinylated single chain WT1 …; assay: kinetic binding analysis, sensorgram in nm against time (sec) with fit; column kD [M]
[16] = target: T4, WT1-A1 heteroclitic peptide (tyrosine …); assay: flow cytometry, live T2 cells pulsed with graded WT1-A1 peptide
[17] = target: T1, RHAMM-R3 peptide/HLA-A0201 complex on …; assay: phage ELISA on the recombinant R3/HLA-A0201 complex (R3), not on cells
[18] = target: T5, RMF peptide (…)/HLA-A0201 complex on …; assay: flow cytometry, scFv phage on T2 cells pulsed with WT1A peptide
[19] = target: T6, Biotinylated single chain WT1 …; assay: kinetic binding analysis, sensorgram in nm against time (sec) with fit; column kd [1/s]; Error in kd 2.25E-5

B1: WT1 ab1, full-length human IgG1 (antibody, V domains shown)
VH: QMQLVQSGAEVKEPGESLRISCKGSGYSFTNFWISWVRQMPGKGLEWMGRVDPGYSYSTYSPSFQGHVTISADKSTSTAYLQWNSLKASDTAMYYCARVQYSGYYDWFDPWGQGTLVTVSS
VL: not shown
notes: No single sentence says that WT1 ab1 is clone #13; also called Mab WT1 ab1; ESK1
B1: no binding (tested: mAb concentration not on the sheet) [1]; no binding (tested: mAb 1 µg/ml; peptide 50 µg/ml) [2]; no binding (tested: mAb 1 µg/ml) [3]. The binding result [4] was “no binding”, the binding result [5] was “no binding (tested: mAb concentration not on the sheet)” and the Kd [6] was about 0.2 nM.

B2: scFv phage clone 15 (scFv)
scFv: DIQMTQSPSTLSASVGDRVTITCRASQNINKWLAWYQQRPGKAPQLLIYKASSLESGVPSRFSGSGSGTEYTLTISSLQPDDFATYYCQQYNSYATFGQGTKVEIKRSRGGGGSGGGGSGGGGSLEMAQVQLVQSGAEVKKPGESLKISCKGSGYNFSNKWIGWVRQLPGRGLEWIAIIYPGYSDITYSPSFQGRVTISADTSINTAYLHWHSLKASDTAMYYCVRHTALAGFDYWGLGTLVTVSS
notes: also called Ext002 #15
B2: no binding [7]; binds [8].

B3: scFv phage clone 18 (scFv)
scFv: QSVVTQPPSVSVAPGKTARITCGRNNIGSKSVHWYQQKPGQAPVLVVYDDSDRPSGIPERFSGSNSGNTATLTISRVEAGDEADYYCQVWDSSSDHVVFGGGTKLTVLGSRGGGGSGGGGSGGSLEMAEVQLVQSGGGVVRPGGSLRLSCAASGFTFDDYGMSWVRQAPGKGLEWVSGINWNGGSTGYADSVRGRFTISRDNAKNSLYLQMNSLRAEDTALYYCARERGYGYHDPHDYWGQGTLVTVSS
notes: also called Ext002 #18
B3: no binding [7]; no binding [9]; binds [8].

AMFPNAPYL [WT1A1-B peptide (AMFPNAPYL)]: binds [10].

YMFPNAPYL [WT1-A1 heteroclitic peptide (tyrosine at position 1 of RMF)]: binds [10].

B4: mAb 5 (mAb clone 5) (antibody, V domains shown)
VH: QVQLQQSGPGLVKPSQTLSLTCAISGDSVSSNSAAWNWIRQSPSRGLEWLGRTYYGSKWYNDYAVSVKSRITINPDTSKNQFSLQLNSVTPEDTAVYYCARGRLGDAFDIWGQGTMVTVSS
VL: not shown
notes: The legends call it mAb 5 or mAb clone 5; also called Ext002 #5
In the case of B4, the binding result [11] is reported as “no binding”, the kon [12] is reported as 468000 M⁻¹ s⁻¹ and the binding result [13] is reported as “no binding (tested: mAb concentration not on the sheet)”. The koff [14] was 0.00548 s⁻¹, the Kd [15] was 11.7 nM and the binding result [16] was “no binding”.

B5: scFv phage clone 23 (scFv)
scFv: QSVLTQPPSVSGAPGQRVTISCTGSSSNIGAGYDVHWYQQLPGTAPKLLIYGNSNRPSGVPDRFSGSKSGTSASLAISGLQSEDEADYYCAAWDDSLNGYVFGTGTKLTVLGSRGGGGSGGGGSGGGGSLEMAEVQLVETGGGLLQPGGSLRLSCAASGFSVSGTYMGWVRQAPGKGLEWVALLYSGGGTYHPASLQGRFIVSRDSSKNMVYLQMNSLKAEDTAVYYCAKGGAGGGHFDSWGQGTLVTVSS
notes: also called Ext002 #23; EXT002-23
B5: no binding [7]; no binding [17]; binds [8].

B6: scFv phage clone 3 (scFv)
scFv: QTVVTQPPSASGTPGQRVTISCSGSSSNIGSNYVYWYQQLPGTAPKLLIYRSNQRPSGVPDRFSGSKSGTSASLAISGPRSVDEADYYCAAWDDSLNGVVFGGGTKLTVLGSRGGGGSGGGGSGGGSLEMAQVQLVQSGAEVKKPGSSVKVSCKASGGTFSSYAISWVRQAPGQGLEWMGGIIPIFGTANYAQKFQGRVTITADESTSTAYMELSSLRSEDTAVYYCARRIPPYYGMDVWGQGTTVTVSS
notes: also called Ext002 #3; EXT002-3
B6: no binding [7]; binds [18]; no binding [9].

B7: mAb 15 (mAb clone 15) (antibody, V domains shown)
VH: QVQLVQSGAEVKKPGESLKISCKGSGYNFSNKWIGWVRQLPGRGLEWIAIIYPGYSDITYSPSFQGRVTISADTSINTAYLHWHSLKASDTAMYYCVRHTALAGFDYWGLGTLVTVSS
VL: DIQMTQSPSTLSASVGDRVTITCRASQNINKWLAWYQQRPGKAPQLLIYKASSLESGVPSRFSGSGSGTEYTLTISSLQPDDFATYYCQQYNSYATFGQGTKVEIKR
notes: The legends call it mAb 15 or clone 15; also called Ext002 #15
Binder B7 has a kon [12] of 245000 M⁻¹ s⁻¹, a koff [19] of 0.00188 s⁻¹ and a Kd [15] of 7.68 nM.
